Results: patent publication EP0699075B1

What was measured:
[1] = biological target: cell-surface tissue factor on rat vascular smooth muscle cells (rat) (UniProt P42533); experiment: cell-based or functional assay
[2] = biological target: purified recombinant soluble tissue factor (UniProt P13726); experiment: cell-based or functional assay
Chain of UniProt P13726 (P13726 33-251 limits assumed): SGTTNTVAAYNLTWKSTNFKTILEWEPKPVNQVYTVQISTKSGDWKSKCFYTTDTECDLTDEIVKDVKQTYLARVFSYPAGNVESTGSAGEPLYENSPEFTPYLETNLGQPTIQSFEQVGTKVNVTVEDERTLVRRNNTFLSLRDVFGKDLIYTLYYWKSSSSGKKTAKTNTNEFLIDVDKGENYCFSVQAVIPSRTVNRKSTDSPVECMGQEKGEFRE

Chain of UniProt P42533 (P42533 29-295): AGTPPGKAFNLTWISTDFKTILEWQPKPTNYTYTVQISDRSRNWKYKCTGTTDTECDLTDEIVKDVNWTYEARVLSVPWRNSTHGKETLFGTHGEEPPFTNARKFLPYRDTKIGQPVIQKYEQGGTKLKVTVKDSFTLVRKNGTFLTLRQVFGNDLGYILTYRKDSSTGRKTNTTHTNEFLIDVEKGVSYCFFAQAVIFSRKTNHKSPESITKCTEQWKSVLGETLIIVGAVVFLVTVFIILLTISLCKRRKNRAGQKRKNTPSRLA

Work on DEGR-Factor VIIa (enzyme) yielded an OD405, Factor Xa chromogenic activity (S-2222) on rat smooth muscle cells, DEGR-Factor VIIa 0.00 nM coincubated with 100 nM Factor VIIa [1] of 0.208 OD405, an OD405, Factor Xa chromogenic activity (S-2222) on rat smooth muscle cells, DEGR-Factor VIIa 0.39 nM coincubated with 100 nM Factor VIIa [1] of 0.176 OD405 and an OD405, Factor Xa chromogenic activity (S-2222) on rat smooth muscle cells, DEGR-Factor VIIa 1.56 nM coincubated with 100 nM Factor VIIa [1] of 0.116 OD405. For the same substance, the OD405, Factor Xa chromogenic activity (S-2222) on rat smooth muscle cells, DEGR-Factor VIIa 6.25 nM coincubated with 100 nM Factor VIIa [1] was 0.073 OD405, the OD405, Factor Xa chromogenic activity (S-2222) on rat smooth muscle cells, DEGR-Factor VIIa 25.00 nM coincubated with 100 nM Factor VIIa [1] was 0.026 OD405 and the OD405, Factor Xa chromogenic activity (S-2222) on rat smooth muscle cells, DEGR-Factor VIIa 100.00 nM coincubated with 100 nM Factor VIIa [1] was 0.014 OD405. It also gave an OD405, Factor Xa chromogenic activity (S-2222) on serum-stimulated rat smooth muscle cells, 10 nM Factor VIIa + 100 nM DEGR-Factor VIIa [1] of 0.073 OD405, an inhibition of chromogenic activity at a 1:1 molar ratio of DEGR-Factor VIIa:Factor VIIa on rat smooth muscle cells [1] of 95% and an OD405, Factor Xa chromogenic activity (S-2222), DEGR-Factor VIIa 0 nM with 100 nM Factor VIIa and soluble tissue factor (cell read as 0 | 0.810) [2] of 0.81 OD405. For the same substance, the OD405, Factor Xa chromogenic activity (S-2222), DEGR-Factor VIIa 5 nM with 100 nM Factor VIIa and soluble tissue factor (cell read as 5 | 0.750) [2] was 0.75 OD405, the OD405, Factor Xa chromogenic activity (S-2222), DEGR-Factor VIIa 10 nM with 100 nM Factor VIIa and soluble tissue factor (cell read as 10 | 0.609) [2] was 0.609 OD405 and the OD405, Factor Xa chromogenic activity (S-2222), DEGR-Factor VIIa 20 nM with 100 nM Factor VIIa and soluble tissue factor (cell read as 20 | 0.296) [2] was 0.296 OD405. It also gave an OD405, Factor Xa chromogenic activity (S-2222), DEGR-Factor VIIa 40 nM with 100 nM Factor VIIa and soluble tissue factor (cell read as 40 | 0.167) [2] of 0.167 OD405, an OD405, Factor Xa chromogenic activity (S-2222), DEGR-Factor VIIa 80 nM with 100 nM Factor VIIa and soluble tissue factor (cell read as 80 | 0.083) [2] of 0.083 OD405 and an OD405, Factor Xa chromogenic activity (S-2222), DEGR-Factor VIIa 160 nM with 100 nM Factor VIIa and soluble tissue factor (cell read as 160 | 0.055) [2] of 0.055 OD405.
recombinant human Factor VIIa (enzyme) showed an OD405, Factor Xa chromogenic activity (S-2222) on PDGF-BB-stimulated rat smooth muscle cells, 10 nM Factor VIIa, cells washed before Factor X was added [1] of 0.36 OD405, an OD405, Factor Xa chromogenic activity (S-2222) on rat smooth muscle cells stimulated with 10% FCS, 10 nM Factor VIIa, cells washed before Factor X was added [1] of 0.342 OD405 and an OD405, Factor Xa chromogenic activity (S-2222) on rat smooth muscle cells, Factor VIIa 0.10 nM [1] of 0.005 OD405. The OD405, Factor Xa chromogenic activity (S-2222) on rat smooth muscle cells, Factor VIIa 0.39 nM [1] was 0.025 OD405, the OD405, Factor Xa chromogenic activity (S-2222) on rat smooth muscle cells, Factor VIIa 1.56 nM [1] was 0.058 OD405 and the OD405, Factor Xa chromogenic activity (S-2222) on rat smooth muscle cells, Factor VIIa 6.25 nM [1] was 0.111 OD405. It also gave an OD405, Factor Xa chromogenic activity (S-2222) on rat smooth muscle cells, Factor VIIa 25.00 nM [1] of 0.154 OD405, an OD405, Factor Xa chromogenic activity (S-2222) on rat smooth muscle cells, Factor VIIa 100.00 nM [1] of 0.208 OD405 and an OD405, Factor Xa chromogenic activity (S-2222) on serum-stimulated rat smooth muscle cells, 10 nM Factor VIIa alone [1] of 0.342 OD405. The OD405, Factor Xa chromogenic activity (S-2222) on unstimulated rat smooth muscle cells (Intrinsic), 10 nM Factor VIIa, cells washed before Factor X was added [1] was 0.247 OD405.
